Experimental data: PMC9162458 (2022)
Like-named read-outs stand apart in the source and are kept apart here. Ends that are not written are not given here.

B1: LiBRC1.2 (LiBRC1 with extended termini, GB1 fusion) (domain or fragment)
chain: LVPTLFSTASGKPVTVRRESLQKVAERLGDLAAPDME
modifications: not fully specified (N-terminus); also: GB1 fusion
B2: LiBRC1.10 (C-terminal truncation of LiBRC1, Val131 also removed, GB1 fusion) (domain or fragment)
chain: LVPTLFSTASGKPVTVRRESLQK
modifications: not fully specified (N-terminus); also: GB1 fusion
B3: GB1-LiBRC1-His8 (BRC repeat 1 of Leishmania infantum BRCA2 fused to GB1) (domain or fragment)
chain: GB1-LVPTLFSTASGKPVTVRRESLQKVAERLGDLAA-His8
B4: LiBRC1.9 (C-terminal truncation of LiBRC1, GB1 fusion) (domain or fragment)
chain: LVPTLFSTASGKPVTVRRESLQKV
modifications: not fully specified (N-terminus, C-terminus); also: GB1 fusion
B5: LiBRC1 free peptide (peptide)
chain: GSLVPTLFSTASGKPVTVRRESLQKVAERLGDLAA
B6: LiBRC1.3 (LiBRC1 with extended termini, GB1 fusion) (domain or fragment)
chain: AAAPPLVPTLFSTASGKPVTVRRESLQKVAERLGDLAA
modifications: not fully specified (N-terminus); also: GB1 fusion
B7: LiRAD51^ATPase (Leishmania infantum RAD51 ATPase domain, residues 134–386) (domain or fragment)
chain: EIIMVTTGSREVDKLLGGGIETGSITELFGEFRTGKTQLCHTLCVTCQLPISQGGAEGMALYIDTEGTFRPERLVAVAARYGLDPEDVLANVACARAFNTDHQQQLLLQASAMMAENRFALIVVDSATALYRTDYSGRNELAARQMHLGKFLRSLHNLAEEYGVAVVVTNQVVANVDGSAQMFQADSKKPIGGHIMAHASTTRLSLRKGRGEQRIIKVYDSPCLAEAEAIFGIYDDGVGDARD
B8: GB1-LiBRC2-His8 (BRC repeat 2 of Leishmania infantum BRCA2 fused to GB1) (domain or fragment)
chain: GB1-RVPTLFETGRGKAVTVQKRSLDKAEASMDSLEA-His8
B9: LiBRC1.11 (C-terminal truncation of LiBRC1 up until Gln129, GB1 fusion) (domain or fragment)
chain: LVPTLFSTASGKPVTVRRESLQ
modifications: not fully specified (N-terminus); also: GB1 fusion
B10: LiBRC1.8 (C-terminal truncation of LiBRC1, Glu133 also removed, GB1 fusion) (domain or fragment)
chain: LVPTLFSTASGKPVTVRRESLQKVA
modifications: not fully specified (N-terminus); also: GB1 fusion
B11: LiBRC1.7 (C-terminal truncation of LiBRC1, residues up to Arg134 removed, GB1 fusion) (domain or fragment)
chain: LVPTLFSTASGKPVTVRRESLQKVAE
modifications: not fully specified (N-terminus); also: GB1 fusion

What was measured:
[1] = target: B7; assay: FP
[2] = target: B7; assay: FP
[3] = target: B7; assay: FP
[4] = target: B7; assay: ITC
LiBRC1.6 = assay: FP
LiBRC1.5 = assay: FP
LiBRC1.12 = assay: FP
LiBRC1.4 = assay: FP

## B1
[1]
  IC50: 1200 nM

## B2
[1]
  IC50: 41000 nM

## B3
[2]
  IC50: 1570 nM

## B4
[3]
  Kd: 2630 nM
[1]
  IC50: 11000 nM

## B5
[4]
  Ka: 1.54e+06 M⁻¹

## B6
[1]
  IC50: 1670 nM

## B7
LiBRC1.6
  Kd: 1090 nM
LiBRC1.5
  Kd: 380 nM
LiBRC1.12
  Kd: > 124000 nM
LiBRC1.4
  Kd: 410 nM

## B8
[2]
  IC50: 55000 nM

## B9
[1]
  IC50: 36500 nM

## B10
[1]
  IC50: 8800 nM

## B11
[1]
  IC50: 1990 nM
